Data published in patent publication US20160200831A1 (Sanofi, published 2016).
Read-outs that look alike come from different tables or passages of the source.

Legend:
[1] = molecular target: T1, glycosylated human PAI-1 (active form) (human, UniProt P05121 24-402, glycosylated); assay: cell-based or functional assay
[2] = molecular target: T1, glycosylated human PAI-1 (active form); assay: cell-based or functional assay; remark: listed apart in the source
human PAI-1 [3] = molecular target: T2, human PAI-1 (human, UniProt P05121 24-402); assay: cell-based or functional assay
[4] = molecular target: T1, glycosylated human PAI-1 (active form); assay: cell-based or functional assay; remark: listed apart in the source
[5] = molecular target: T1, glycosylated human PAI-1 (active form); assay: cell-based or functional assay; remark: listed apart in the source
[6] = molecular target: T1, glycosylated human PAI-1 (active form); assay: Biacore (summary table)
Experimental: (§1) In kinetics measurement, the antibodies were evaluated in reverse at 25° C. In the reverse assay, PAI-1 antibodies were captured to the anti-mouse IgG Fc antibody surface prepared on CM5 chip followed by injecting the serial 2× dilutions of PAI-1 proteins (human or cyno) starting at 40 nM. A high flow rate was chosen at 50 ul/min to avoid mass transportation limitation. Two thousand seconds was allowed for dissociation time to accommodate for the slow off rate of the selected antibodies. The chip was regenerated by glycine-HCl, pH 1.7 buffer after each round of antibody-PAI-1 binding. Kinetics data analysis was performed using Biacore BIAevaluation software. The sensorgrams were double-referenced by subtracting the reference flow cell values and the blank buffer values. The sensorgrams were fitted by using the simulated kinetics 1:1 (Langmuir) model with local Rmax.

human PAI-1 [7] = molecular target: T2, human PAI-1; assay: cell-based or functional assay; remark: listed apart in the source
cynomolgus PAI-1 [8] = molecular target: T3, cynomolgus PAI-1 (cynomolgus monkey (Macaca fascicularis), UniProt P05121 24-402 (human entry)); assay: cell-based or functional assay
human PAI-1 [9] = molecular target: T2, human PAI-1; assay: Biacore, hybridoma supernatant
[10] = molecular target: T4, cyno PAI-1 captured on immobilized human vitronectin (cynomolgus monkey; human, UniProt P04004 20-478, limits assumed); assay: Biacore, cPAI-1 on vitronectin chip, 1:1 model
T4 construct: non-covalent complex formed on the chip; also called cPAI-1/Vn

[11] = molecular target: T5, human PAI-1 captured on immobilized human vitronectin (human, UniProt P04004 20-478); assay: Biacore, hPAI-1 on vitronectin chip, 1:1 model
T5 construct: non-covalent complex formed on the chip or plate; also called PAI-1/Vn complex; Vn captured hPAI-1

human PAI-1 [12] = molecular target: T2, human PAI-1; assay: Biacore reverse assay, mAb captured by anti-mouse IgG Fc, 25 C
Experimental: as §1

cynomolgus PAI-1 [13] = molecular target: T3, cynomolgus PAI-1; assay: as above
Experimental: as §1

[14] = molecular target: T5, human PAI-1 captured on immobilized …; assay: Biacore forward assay, hPAI-1 captured on immobilized vitronectin
Experimental: Binding kinetics of representative antibodies were further analyzed and compared in Biacore forward assay with vitronectin and PAI-1 complex. In the forward assay, human vitronectin protein was immobilized onto the CM5 chip in flow cells Fc1-Fc4 by amine coupling. Human PAI-1 was then captured to the vitronectin surface in flow cells Fc2-Fe4 as ligand. Fc1 was reserved as reference cell. The antibodies were diluted 2× starting from 40 nM and injected to Fc1-4. Kinetics data analysis was performed using Biacore BIAevaluation software. The sensorgrams were first double-referenced by subtracting the reference cell values and the blank buffer values, and then fitted by 1:1 (Langmuir) model was used with global Rmax.

[15] = molecular target: T4, cyno PAI-1 captured on immobilized …; assay: Biacore, cPAI-1 on vitronectin chip, two state reaction model
[16] = molecular target: T5, human PAI-1 captured on immobilized …; assay: Biacore, hPAI-1 on vitronectin chip, two state reaction model
[17] = molecular target: T4, cyno PAI-1 captured on immobilized …; assay: Biacore, cPAI-1 on vitronectin chip, two state reaction model (ka1)
[18] = molecular target: T4, cyno PAI-1 captured on immobilized …; assay: Biacore, cPAI-1 on vitronectin chip, two state reaction model (kd1)
[19] = molecular target: T5, human PAI-1 captured on immobilized …; assay: Biacore, hPAI-1 on vitronectin chip, two state reaction model (kd1)
[20] = molecular target: T5, human PAI-1 captured on immobilized …; assay: Biacore, hPAI-1 on vitronectin chip, two state reaction model (ka1); two state reaction model, ka1 is the first-step rate
[21] = molecular target: T1, glycosylated human PAI-1 (active form); assay: cell-based or functional assay; remark: listed apart in the source
human PAI-1 [22] = molecular target: T2, human PAI-1; assay: cell-based or functional assay; remark: listed apart in the source
cynomolgus PAI-1 [23] = molecular target: T3, cynomolgus PAI-1; assay: cell-based or functional assay; remark: listed apart in the source
human PAI-1 [24] = molecular target: T2, human PAI-1; assay: cell-based or functional assay; remark: listed apart in the source
[25] = molecular target: T1, glycosylated human PAI-1 (active form); assay: cell-based or functional assay; remark: listed apart in the source
human PAI-1 [26] = molecular target: T2, human PAI-1; assay: Biacore, mAb on anti-human IgG Fc chip, 1:1 model
cynomolgus PAI-1 [27] = molecular target: T3, cynomolgus PAI-1; assay: Biacore, mAb on anti-human IgG Fc chip / cyno PAI-1, 1:1 model
human PAI-1 [28] = molecular target: T2, human PAI-1; assay: cell-based or functional assay; remark: listed apart in the source
human PAI-1 [29] = molecular target: T2, human PAI-1; assay: Biacore, hybridoma supernatant; hybridoma supernatant, off-rate screen (class, not a fitted rate)
Experimental: In the Biacore reverse screening assay, ELISA positive hybridoma supernatants were selected and filtered through 0.2 μm filters before being injected onto Biacore chip surface. Each hybridoma supernatant was injected onto one flow cell of flow cells Fc2-Fc4 and the IgG in the hybridoma supernatant would be captured to the chip surface by anti-mouse IgG Fc mAb, while Fc1 was left alone as reference cells. Human PAI-1 protein in PBS was then injected to Fc1 to Fc4. PBS buffer was also injected over the chip surface as a blank. After subtracting signals of Fc1 and blank buffer runs, the binding affinity (KD)/disassociation rate (kd) of the antibody from the supernatants to PAI-1 protein was analyzed and ranked using Scrubber 2 software.

human PAI-1 [30] = molecular target: T2, human PAI-1; assay: Biacore reverse assay, mAb captured by anti-mouse IgG Fc, 25 C; reverse assay: B28 captured by anti-mouse IgG Fc, PAI-1 injected, 25 C
Experimental: as §1

T2 sequence (P05121 24-402 limits assumed): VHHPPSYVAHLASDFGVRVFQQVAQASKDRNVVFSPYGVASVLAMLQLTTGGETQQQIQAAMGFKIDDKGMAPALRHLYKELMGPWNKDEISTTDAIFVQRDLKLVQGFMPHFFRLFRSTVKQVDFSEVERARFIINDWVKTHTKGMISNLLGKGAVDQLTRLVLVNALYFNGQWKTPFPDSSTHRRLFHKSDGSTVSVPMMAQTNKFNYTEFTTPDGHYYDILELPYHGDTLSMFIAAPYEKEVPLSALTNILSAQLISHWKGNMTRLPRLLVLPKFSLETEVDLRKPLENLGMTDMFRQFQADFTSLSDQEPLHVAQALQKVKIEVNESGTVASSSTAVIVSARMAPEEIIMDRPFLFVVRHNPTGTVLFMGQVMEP
T5 sequence (chain, as listed by the source limits assumed, chain 1 of 2): as the sequence (P05121 24-402 limits assumed) above
T5 sequence (P04004 20-478 limits assumed, chain 2 of 2): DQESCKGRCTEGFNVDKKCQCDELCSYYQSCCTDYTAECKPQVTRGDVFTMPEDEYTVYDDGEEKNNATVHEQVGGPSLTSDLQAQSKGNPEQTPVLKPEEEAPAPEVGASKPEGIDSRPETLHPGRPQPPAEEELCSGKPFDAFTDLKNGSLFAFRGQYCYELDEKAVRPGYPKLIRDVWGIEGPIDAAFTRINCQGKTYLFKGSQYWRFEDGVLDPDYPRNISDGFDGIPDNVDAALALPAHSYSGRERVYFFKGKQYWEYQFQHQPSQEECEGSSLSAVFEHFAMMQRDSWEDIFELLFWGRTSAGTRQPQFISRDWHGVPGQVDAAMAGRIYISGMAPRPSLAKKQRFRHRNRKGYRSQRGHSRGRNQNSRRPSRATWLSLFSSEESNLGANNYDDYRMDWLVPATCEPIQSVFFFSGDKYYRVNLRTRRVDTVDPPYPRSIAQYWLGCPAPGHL
T1 sequence (P05121 24-402 limits assumed): as the sequence (P05121 24-402 limits assumed) above
T3 sequence (P05121 other isoform, or with tags, fused parts or gaps limits assumed): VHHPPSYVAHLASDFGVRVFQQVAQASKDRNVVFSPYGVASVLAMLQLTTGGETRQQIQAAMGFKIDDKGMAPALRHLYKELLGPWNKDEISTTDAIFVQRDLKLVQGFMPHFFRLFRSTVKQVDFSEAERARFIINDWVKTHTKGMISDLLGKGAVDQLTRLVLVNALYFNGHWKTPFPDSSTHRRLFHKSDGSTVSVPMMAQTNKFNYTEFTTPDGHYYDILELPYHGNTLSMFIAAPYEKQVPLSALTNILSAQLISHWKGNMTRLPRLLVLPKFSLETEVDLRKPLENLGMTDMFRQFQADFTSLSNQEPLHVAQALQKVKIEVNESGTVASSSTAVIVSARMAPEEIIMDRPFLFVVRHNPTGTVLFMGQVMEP
T4 sequence (chain, as listed by the source limits assumed, chain 1 of 2): as the sequence (P05121 other isoform, or with tags, fused parts or gaps limits assumed) above
T4 sequence (P04004 20-478 limits assumed, chain 2 of 2): as the sequence (P04004 20-478 limits assumed, chain 2 of 2) above

B1: A44 (antibody, mouse IgG1, V domains shown)
VH: EMQLQESGPSLVKPSQTLSLTCSVTGDSMTNGYWNWIRKFPGNKLEYMGYITYSGSTYYNPSLKGRISITRNTSKNQYYLQLSSVTTEDTATYYCARWHYGSPYYFDYWGQGTTLTVSS
VL: DIKMTQSPSSMYASLGERVTITCKASQDINSYLSWLQQKPGKSPKTLIYRANRSVDGVPSRFSGSGSGQDYSLTISSLEYEDMGIYYCLQYDEFPPTFGGGTKLEIKR
notes: mouse IgG1/kappa; also called mA44; A44 parental
[1]
  plasmin generation, hepatic stellate cells, IC50abs: 3320 pM
  plasmin generation, hepatic stellate cells, Imax: 97%
[2]
  Plasmin Generation: 3.32 nM
Human PAI-1 [3]
  Chromogenic Assay IC50: 440 pM
[4]
  Plasminogen Activation IC50: 3170 pM
  Plasminogen Activation Y50%: 46%
[5]
  Plasminogen Activation IC50: 3130 pM
  Plasminogen Activation Y50%: 79.8%
[6]
  Kd: 0.042 pM
Human PAI-1 [7]
  EC50, fall of % tPA inhibition by PAI-1 (chromogenic neutralisation assay): 4030 pM
Cynomolgus PAI-1 [8]
  EC50, % PAI-1 neutralization, 2.8 nM cyno PAI-1 (chromogenic assay with human tPA); plateau about 100 %: 226 pM
Human PAI-1 [9]
  koff: ≤ 0.0001 s⁻¹
[10]
  Kd: 69.6 pM
  koff: 0.000275 s⁻¹
  kon: 3.98e+06 M⁻¹ s⁻¹
[11]
  Kd: 40.4 pM
  koff: 0.000229 s⁻¹
  kon: 5.68e+06 M⁻¹ s⁻¹
Human PAI-1 [12]
  Kd: 3.76 pM
  koff: 1.49e-05 s⁻¹
Cynomolgus PAI-1 [13]
  Kd: ≤ 0.1 pM
  koff: ≤ 1e-06 s⁻¹
[14]
  Kd: ≤ 1 pM
  koff: ≤ 1e-06 s⁻¹

B2: A44-hv2 (antibody, V domains shown)
VH: EMQLQESGPGLVKPSETLSLTCSVTGDSMTNGYWNWIRKFPGKGLEYMGYITYSGSTYYNPSLKGRISITRNTSKNQYYLKLSSVTTADTATYYCARWHYGSPYYFDYWGQGTTLTVSS
VL: DIKMTQSPSSVSVSPGQTVTITCKASQDINSYLSWLQQKPGQSPKTLIYRANRSVDGVPSRFSGSGSGQDYSLTISSLQAMDEGIYYCLQYDEFPPTFGGGTKLTIK
notes: humanized A44, HEK293; constant regions as for A44-hv1; also called LC1b x HC1b; variant 2
Human PAI-1 [3]
  Chromogenic Assay IC50: 600 pM
[15]
  Kd: 137 pM
[16]
  Kd: 135 pM
[17]
  kon: 2.3e+06 M⁻¹ s⁻¹
[18]
  koff: 0.000314 s⁻¹
[19]
  koff: 0.000403 s⁻¹
[20]
  kon: 2.99e+06 M⁻¹ s⁻¹

B3: A44-hv11 (antibody, V domains shown)
VH: QMTLKESGPTLVKPTQTLSLTCSVSGDSMTNGYWNWIRQFPGKALEYMGYITYSGSTYYNPSLKGRITITRDTSKNQYYLTLSSVTTVDTATYYCARWHYGSPYYFDYWGQGTTLTVSS
VL: DIKMTQSPSSLSASVGDRVTITCKASQDINSYLSWLQQKPGKSPKTLIYRAQRSVEGVPSRFSGSGSGQDYSLTISSLQPEDLGIYYCLQYDEFPPTFGGGTKLEIK
notes: humanized A44, HEK293; compared with a human IgG1 isotype control; constant regions as for A44-hv1; also called A44V11; A44v11
[21]
  human plasma clot lysis restoration, IC50: 2000 pM
[5]
  Plasminogen Activation IC50: 2010 pM
  Plasminogen Activation Y50%: 85.8%
Human PAI-1 [22]
  active PAI-1 by uPA-PAI-1 complex ELISA, hPAI-1 Standard, IC50: 131 pM
  active PAI-1 by uPA-PAI-1 complex ELISA, hPAI-1 Standard, Y50%: 50.8%
  active PAI-1 by uPA-PAI-1 complex ELISA, hPlasma TH1782, IC50: 15.7 pM
  active PAI-1 by uPA-PAI-1 complex ELISA, hPlasma TH1782, Y50%: 37.5%
Cynomolgus PAI-1 [23]
  active PAI-1 by uPA-PAI-1 complex ELISA, Cyno PAI-1, IC50: 42.4 pM
  active PAI-1 by uPA-PAI-1 complex ELISA, Cyno PAI-1, Y50%: 50.8%
Human PAI-1 [24]
  PAI-1 activity in human liver lysate (UK-PAI complex ELISA), IC50, A44-hv11 (1 nM): 36.5 pM
  PAI-1 activity in human liver lysate (UK-PAI complex ELISA), IC50, A44-hv11 (2 nM): 50.3 pM
  PAI-1 activity in human liver lysate (UK-PAI complex ELISA), IC50, A44-hv11 (3 nM): 46.5 pM
[25]
  human plasma clot lysis, IC50: 1380 pM
  human plasma clot lysis, Imax @ 100 nM: 113%
[11]
  Kd: 15.6 pM
  koff: 0.000122 s⁻¹
  kon: 7.66e+06 M⁻¹ s⁻¹
Human PAI-1 [26]
  Kd: 42.5 pM
  koff: 6.68e-05 s⁻¹
  kon: 1.57e+06 M⁻¹ s⁻¹
[15]
  Kd: 387 pM
Cynomolgus PAI-1 [27]
  Kd: 30 pM
  koff: 5.6e-05 s⁻¹
  kon: 1.87e+06 M⁻¹ s⁻¹
[17]
  kon: 1.56e+06 M⁻¹ s⁻¹
[18]
  koff: 0.0006 s⁻¹

B4: B28 (antibody, mouse IgG2b, V domains shown)
VH: QVQLQQSGAELMKPGASVKISCKATGYTFSISWIEWIKQRPGGLEWIGKILPGSGGANYNEKFKGKATVTADTSSNTVYMQLSSLTSEDSAVYYCARLSTGTRGAFDYWGQGTTLTVSS
VL: DIQLTQSPASLSASVGATVTITCRASENVYSYLAWYQQKQGKSPQLLVYNAKTLAEGVPSRFSGSGSGTQFSLKINYLQPEDFGSYYCQHHYGTPPTFGGGTKVEIKR
notes: mouse IgG2b/kappa; also called mB28; B28 (IgG2b/k)
[1]
  plasmin generation, hepatic stellate cells, IC50abs: 7280 pM
  plasmin generation, hepatic stellate cells, Imax: 90%
[2]
  Chromogenic Assays: 1.8 nM
  Plasmin Generation: 7.28 nM
[6]
  Kd: 650 pM
Human PAI-1 [28]
  EC50, % neutralization of hPAI-1 (chromogenic assay): 2300 pM
Human PAI-1 [29]
  koff: ≤ 0.0001 s⁻¹
Human PAI-1 [30]
  Kd: 650 pM
  koff: 0.000461 s⁻¹
